In US20050277762A1 (published 2005):
Each block holds one binder with its values, some of them ahead of it.

What was measured:
[1] = molecular target: T1, ubiquitin aldehyde (Ubal) (UniProt P0CG47 1-76, C-terminal residue as aldehyde); assay: competition: wild type yeast lysate pre-incubated with increasing Ubal, then [^125I]-UbVS labeling
Excerpt: Reactions were quenched with sample buffer, resolved by 10% SDS-PAGE and analyzed by autoradiography. Identity of bands was assigned based on the absence of a band corresponding to the molecular weight of a DUB deleted in that strain.

[2] = molecular target: T1, ubiquitin aldehyde (Ubal); assay: competition: lysate pre-treated with Ubal, then [^125I]-UbVS labeling

- binding result [1]: binds
B1: Ubp2 (enzyme, S. cerevisiae, UniProt Q01476 1-1272, looked up)
chain: MPNEDNELQKAIENHHNQLLNQDKENADRNGSVIEDLPLYGTSINQQSTPGDVDDGKHLLYPDIATNLPLKTSDRLLDDILCDTIFLNSTDPKVMQKGLQSRGILKESMLSYSTFRSSIRPNCLGSLTDQVVFQTKSEYDSISCPKYNKIHVFQAVIFNPSLAEQQISTFDDIVKIPIYHLKVSVKVRQELERLKKHVGVTQFHSLDHLHEYDRVDLSTFDSSDPNLLDYGIYVSDDTNKLILIEIFKPEFNSPEEHESFTADAIKKRYNAMCVKNESLDKSETPSQVDCFYTLFKIFKGPLTRKSKAEPTKTIDSGNLALNTHLNPEWLTSKYGFQASSEIDEETNEIFTEYVPPDMVDYVNDLETRKIRESFVRKCLQLIFWGQLSTSLLAPNSPLKNTKSVKGMSSLQTSFSTLPWFHLLGESRARILLNSNEQTHSPLDAEPHFINLSVSHYYTDRDIIRNYESLSSLDPENIGLYFDALTYIANRKGAYQLIAYCGKQDIIGQEALENALLMFKINPKECNISELNEATLLSIYKYETSNKSQVTSNHLTNLKNALRLLAKYTKSDKLKFYVDHEPYRALSQAYDTLSIDESVDEDIIKTAYSVKINDSPGLKLDCDRALYTIAISKRSLDLFNFLTEECPQFSNYYGPEKLDYQEALKLLQVNENASDETILKIFKQKWFDENVYEPDQFLILRAALTKISIERNSTLITNFLLTGTIDPNSLPPENWPTGINNIGNTCYLNSLLQYYFSIAPLRRYVLEYQKTVENFNDHLSNSGHIRRIGGREISRGEVERSIQFIYQLRNLFYAMVHTRERCVTPSKELAYLAFAPSNVEVEFEVEGNKVVDQTGVLSDSKKETTDDAFTTKIKDTSLIDLEMEDGLNGDVGTDANRKKNESNDAEVSENEDTTGLTSPTRVAKISSDQLENALEMGRQQDVTECIGNVLFQIESGSEPIRYDEDNEQYDLVKQLFYGTTKQSIVPLSATNKVRTKVERFLSLLINIGDHPKDIYDAFDSYFKDEYLTMEEYGDVIRTVAVTTFPTILQVQIQRVYYDRERLMPFKSIEPLPFKEVIYMDRYADTENPLLLAKKKETEEMKQKLKVMKNRQRELLSRDDSGLTRKDAFLESIKLLESDTIKKTPLKIEAANDVIKTLRNNVQNIDNELMKLYNDINSLEEKISHQFDDFKEYGYSLFSVFIHRGEASYGHYWIYIKDRNRNGIWRKYNDETISEVQEEEVFNFNEGNTATPYFLVYVKQGQEGDIEPLKRILK
notes: also called Ubp2p

- binding result [1]: binds
B2: Ubp6 (enzyme, S. cerevisiae, UniProt P43593 1-499, looked up)
chain: MSGETFEFNIRHSGKVYPITLSTDATSADLKSKAEELTQVPSARQKYMVKGGLSGEESIKIYPLIKPGSTVMLLGTPDANLISKPAKKNNFIEDLAPEQQVQQFAQLPVGFKNMGNTCYLNATLQALYRVNDLRDMILNYNPSQGVSNSGAQDEEIHKQIVIEMKRCFENLQNKSFKSVLPIVLLNTLRKCYPQFAERDSQGGFYKQQDAEELFTQLFHSMSIVFGDKFSEDFRIQFKTTIKDTANDNDITVKENESDSKLQCHISGTTNFMRNGLLEGLNEKIEKRSDLTGANSIYSVEKKISRLPKFLTVQYVRFFWKRSTNKKSKILRKVVFPFQLDVADMLTPEYAAEKVKVRDELRKVEKEKNEKEREIKRRKFDPSSSENVMTPREQYETQVALNESEKDQWLEEYKKHFPPNLEKGENPSCVYNLIGVITHQGANSESGHYQAFIRDELDENKWYKFNDDKVSVVEKEKIESLAGGGESDSALILMYKGFGL
notes: also called Ubp6p

- binding result [1]: binds
B3: Ubp15 (enzyme, S. cerevisiae, UniProt P50101 1-1230, looked up)
chain: MSSEDELGSIGTVFPGSPIDKSIGSILPQFDEEVETLLEDSFTWNIPDWNELTNPKYNSPRFRIGDFEWDILLFPQGNHNKGVAVYLEPHPEEKLDETTGEMVPVDPDWYCCAQFAIGISRPGNGDTINLINKSHHRFNALDTDWGFANLIDLNNLKHPSKGRPLSFLNEGTLNITAYVRILKDPTGVLWHNFLNYDSKKVTGYVGFRNQGATCYLNSLLQSYFFTKYFRKLVYEIPTEHESPNNSVPLALQRAFYQLQVSDIPLDTLELTRSFGWDTAESFTQHDVQELNRILMDRLENNMKGTPVEGKLNEIFVGKMKSYIKCINVDYESARVEDFWDLQLNVKNFKNLQESFDNYIEMELMNGENQYAAQDYGLQDAQKGVIFESFPPVLHLQLKRFEYDFNYDQMVKVNDKYEFPETIDLSPFVDKDVLKKTLDSENKDKNPYVYNLHGVLVHSGDISTGHYYTLIKPGVEDQWYRFDDERVWRVTKKQVFQENFGCDRLPDEKVRTMTRGEYQNYIIQRHTSAYMLVYIRQEQEEDLLRPVLESDVPKHVITRVREEIKERETKEKEIREAHLYVTLRLHSIKEFIHYEGFDYFAHDGFRLFAEELNDSGLQQINLKVLRTTKLSDIFASIKETMNIPQERDVKYWKMDYRRNSTLRLTQPINFESVNITLQEALKKEKKRTMQTQYGEEGVASTEEDDKALLETVSFLDLFIEEPYLELQFLNKLKEASLISKAQLDDELISTIRTNLPELTKGGIEPVFATDNKSNLLFVKSYDPHTQKLLGFGHFAVNQLQQLSDISAIIEDSISSNEKLTFYEEVQPGTINEIYMKETIYDADIDTGDIVSFEVPGAVLPDTFPVYATIKDFYSYLRYRVKLKFSKFDGSSEEYGVSNEIPESFEFWISAYAPYDDLARMVSKYAHVKPEYLKIIALYSNGRFVLKSTSLLNDYLLKDFNCDQIPPFAFEVLSVPLKELERLRPIKLYWLKNSYIHYQCFEFEVANDYTESQFLEKVQHKIGFTDEEKENILLWTNTNFQFQGLLSDQNTFKDVSKHSLLFGRILPEESKLFKELNRLENVQTSSLEDFMDDENATDRPMDDEQDLGMAIEHSEDMKGRIVVVQQYFKDLENRHGISFLFNLIPDETFPKTKDRLHAKFGLGQKEFSKIKLSIGYSTEEGTVFRSLQGFSDEELDKVILYDIMSNLDYIYMDHPDRLRSHSSYDRPMIIKN
notes: also called Ubp15p

- binding result [1]: binds
B4: Ubp1 (enzyme, S. cerevisiae, UniProt P25037 1-809, looked up)
chain: MDLFIESKINSLLQFLFGSRQDFLRNFKTWSNNNNNLSIYLLIFGIVVFFYKKPDHLNYIVESVSEMTTNFRNNNSLSRWLPRSKFTHLDEEILKRGGFIAGLVNDGNTCFMNSVLQSLASSRELMEFLDNNVIRTYEEIEQNEHNEEGNGQESAQDEATHKKNTRKGGKVYGKHKKKLNRKSSSKEDEEKSQEPDITFSVALRDLLSALNAKYYRDKPYFKTNSLLKAMSKSPRKNILLGYDQEDAQEFFQNILAELESNVKSLNTEKLDTTPVAKSELPDDALVGQLNLGEVGTVYIPTEQIDPNSILHDKSIQNFTPFKLMTPLDGITAERIGCLQCGENGGIRYSVFSGLSLNLPNENIGSTLKLSQLLSDWSKPEIIEGVECNRCALTAAHSHLFGQLKEFEKKPEGSIPEKLINAVKDRVHQIEEVLAKPVIDDEDYKKLHTANMVRKCSKSKQILISRPPPLLSIHINRSVFDPRTYMIRKNNSKVLFKSRLNLAPWCCDINEINLDARLPMSKKEKAAQQDSSEDENIGGEYYTKLHERFEQEFEDSEEEKEYDDAEGNYASHYNHTKDISNYDPLNGEVDGVTSDDEDEYIEETDALGNTIKKRIIEHSDVENENVKDNEELQEIDNVSLDEPKINVEDQLETSSDEEDVIPAPPINYARSFSTVPATPLTYSLRSVIVHYGTHNYGHYIAFRKYRGCWWRISDETVYVVDEAEVLSTPGVFMLFYEYDFDEETGKMKDDLEAIQSNNEEDDEKEQEQKGVQEPKESQEQGEGEEQEEGQEQMKFERTEDHRDISGKDVN
notes: also called Ubp1p

- binding result [1]: binds
B5: Yuh1 (enzyme, S. cerevisiae, UniProt P35127 1-236, looked up)
chain: MSGENRAVVPIESNPEVFTNFAHKLGLKNEWAYFDIYSLTEPELLAFLPRPVKAIVLLFPINEDRKSSTSQQITSSYDVIWFKQSVKNACGLYAILHSLSNNQSLLEPGSDLDNFLKSQSDTSSSKNRFDDVTTDQFVLNVIKENVQTFSTGQSEAPEATADTNLHYITYVEENGGIFELDGRNLSGPLYLGKSDPTATDLIEQELVRVRVASYMENANEEDVLNFAMLGLGPNWE
notes: also called Yuh1p

- binding result [2]: binds
B6: USP14 (TGT) (enzyme, mouse (EL-4 cell lysate), UniProt Q9JMA1 1-493, looked up)
chain: MPLYSVTVKWGKEKFEGVELNTDEPPMVFKAQLFALTGVQPARQKVMVKGGTLKDDDWGNIKMKNGMTVLMMGSADALPEEPSAKTVFVEDMTEEQLATAMELPCGLTNLGNTCYMNATVQCIRSVPELKDALKRYAGALRASGEMASAQYITAALRDLFDSMDKTSSSIPPIILLQFLHMAFPQFAEKGEQGQYLQQDANECWIQMMRVLQQKLEAIEDDSGRETDSSSAPAVTPSKKKSLIDQYFGVEFETTMKCTESEEEEVTKGKENQLQLSCFINQEVKYLFTGLKLRLQEEITKQSPTLQRNALYIKSSKISRLPAYLTIQMVRFFYKEKESVNAKVLKDVKFPLMLDVYELCTPELQEKMVSFRSKFKDLEDKKVNQQPNANDKNSPPKEIKYEPFSFADDIGSNNCGYYDLQAVLTHQGRSSSSGHYVSWVRRKQDEWIKFDDDKVSIVTPEDILRLSGGGDWHIAYVLLYGPRRVEIMEEESEQ
notes: also called p58
